{
  "source": "paper PMC4691852",
  "about": "(Molecular cell, 2013)",
  "binders": {"B1": {"name": "Bacillus subtilis MazE (antitoxin) coexpressed with MazF from modified pRSFDuet-1 (natural protein)", "chain": "MSESSARTEMKISLPENLVAELDGVAMREKRSRNELISQAVRAYVSERTTRHNRDLMRRGYMEMAKINLNISSEAHFAECEAETTVERLVSGG", "modifications": "selenomethionine-labelled (for the crystals)"}, "B2": {"name": "Bacillus subtilis MazF (toxin, mRNA interferase), expressed alone from pET-SUMO (enzyme)", "chain": "MIVKRGDVYFADLSPVVGSEQGGVRPVLVIQNDIGNRFSPTAIVAAITAQIQKAKLPTHVEIDAKRYGFERDSVILLEQIRTIDKQRLTDKITHLDDEMMDKVDEALQISLALIDF"}, "B3": {"name": "Bacillus subtilis MazF coexpressed with MazE from modified pRSFDuet-1 (enzyme)", "chain": "B2 chain", "modifications": "selenomethionine-labelled (for the crystals)"}},
  "key": {"crystal structure [1]": {"biological_target": "the molecule itself", "test": "crystal structure"}, "crystal structure [2]": {"biological_target": "the molecule itself", "test": "crystal structure", "remark": "listed apart in the source"}, "MazF": {"biological_target": "T1, MazF (Bacillus subtilis, UniProt P96622 1-116)", "T1 sequence": "B2 chain", "test": "ITC"}},
  "note": "Like-named read-outs stand apart in the source and are kept apart here.",
  "data": [
    {"binder": "B1", "values": [
      {"measurement": "stoichiometry N", "setting": "crystal structure [1]", "result": 2}
    ]},
    {"binder": "B2", "values": [
      {"measurement": "stoichiometry N", "setting": "crystal structure [2]", "result": 2}
    ]},
    {"binder": "B3", "values": [
      {"measurement": "stoichiometry N", "setting": "crystal structure [1]", "result": 2}
    ]},
    {"binder": "UUUACAUAA (ssRNA, 2'-deoxyuridine at position 3 (other residues ribo))", "note": "[uncleavable 9-mer RNA UUdUACAUAA]", "values": [
      {"measurement": "Kd", "setting": "MazF", "result": 64, "unit": "nM"}
    ]}
  ]
}
